According to FireProtDB (doi:10.1021/bi048182n):
“And” between values parts separate entries of the source, which are not always exact repeats. Equal values may be shown once.

Settings: Bos taurus, pH 8.4, 23 °C, GdnHCl, HPLC, Tris-HCl 0.1 M, reversible: yes, whole UniProt chain shown

B1: Alpha-lactalbumin wild type, P00711 (protein)
chain: MMSFVSLLLVGILFHATQAEQLTKCEVFRELKDLKGYGGVSLPEWVCTTFHTSGYDTQAIVQNNDSTEYGLFQINNKIWCKDDQNPHSSNICNISCDKFLDDDLTDDIMCVKKILDKVGINYWLAHKALCSEKLDQWLCEKL
- denaturant m value (CaCl2 5 mM): 2.1 kcal/mol/M and 2.4 kcal/mol/M
- denaturant midpoint (higher = more stable) (CaCl2 5 mM): 2.15 M and 1.4 M
- unfolding free energy (CaCl2 5 mM): 4.52 kcal/mol and 3.36 kcal/mol
- denaturant m value: 2.3 kcal/mol/M and 3.4 kcal/mol/M
- denaturant midpoint (higher = more stable): 1.1 M and 0.4 M
- unfolding free energy: 2.53 kcal/mol and 1.36 kcal/mol
